# Reference: IntAct's records for PubMed 24876499
# B1: Phosphatidylinositol 4-kinase beta (Homo sapiens), Q9UBF8-2 (parent)
# chain: MGDTVVEPAPLKPTSEPTSGPPGNNGGSLLSVITEGVGELSVIDPEVAQKACQEVLEKVKLLHGGVAVSSRGTPLELVNGDGVDSEIRCLDDPPAQIREEEDEMGAAVASGTAKGARRRRQNNSAKQSWLLRLFESKLFDISMAISYLYNSKEPGVQAYIGNRLFCFRNEDVDFYLPQLLNMYIHMDEDVGDAIKPYIVHRCRQSINFSLQCALLLGAYSSDMHISTQRHSRGTKLRKLILSDELKPAHRKRELPSLSPAPDTGLSPSKRTHQRSKSDATASISLSSNLKRTASNPKVENEDEPVRLAPEREFIKSLMAIGKRLATLPTKEQKTQRLISELSLLNHKLPARVWLPTAGFDHHVVRVPHTQAVVLNSKDKAPYLIYVEVLECENFDTTSVPARIPENRIRSTRSVENLPECGITHEQRAGSFSTVPNYDNDDEAWSVDDIGELQVELPEVHTNSCDNISQFSVDSITSQESKEPVFIAAGDIRRRLSEQLAHTPTAFKRDPEDPSAVALKEPWQEKVRRIREGSPYGHLPNWRLLSVIVKCGDDLRQELLAFQVLKQLQSIWEQERVPLWIKPYKILVISADSGMIEPVVNAVSIHQVKKQSQLSLLDYFLQEHGSYTTEAFLSAQRNFVQSCAGYCLVCYLLQVKDRHNGNILLDAEGHIIHIDFGFILSSSPRNLGFETSAFKLTTEFVDVMGGLDGDMFNYYKMLMLQGLIAARKHMDKVVQIVEIMQQGSQLPCFHGSSTIRNLKERFHMSMTEEQLQLLVEQMVDGSMRSITTKLYDGFQYLTNGIM
# Variants of: B1
# Conditions: with rb11a_human RAB11A
row,Variant,effect of a mutation on the interaction
1,F165A,disrupting interaction strength
2,N162A,disrupting interaction strength
3,G155D,decreasing interaction strength
4,Y159A;N162A,disrupting interaction strength
5,Y159A,disrupting interaction strength
